Measured values taken from paper PMC2173740 (The Journal of Cell Biology, 2003).
Several values for one entry are separate records, joined by “and”; a condition that tells them apart may be missing. Equal values may be shown once.

Experiments:
[1] = biological target: 86-kD fragment of Toc159 (pea (endogenous in pea chloroplast outer envelope)); experiment: subunit quantification by radioactive NEM labelling of cysteines
[2] = biological target: 86-kD fragment of Toc159 (pea (endogenous in pea chloroplast outer envelope)); experiment: subunit quantification by immunoblot
[3] = biological target: 86-kD fragment of Toc159 (pea (endogenous in pea chloroplast outer envelope)); experiment: subunit quantification by Coomassie staining
Toc75 = biological target: T1, Toc75 (pea (endogenous in pea chloroplast …, UniProt Q43715 132-809)); experiment: co-sedimentation
T1 sequence (looked up): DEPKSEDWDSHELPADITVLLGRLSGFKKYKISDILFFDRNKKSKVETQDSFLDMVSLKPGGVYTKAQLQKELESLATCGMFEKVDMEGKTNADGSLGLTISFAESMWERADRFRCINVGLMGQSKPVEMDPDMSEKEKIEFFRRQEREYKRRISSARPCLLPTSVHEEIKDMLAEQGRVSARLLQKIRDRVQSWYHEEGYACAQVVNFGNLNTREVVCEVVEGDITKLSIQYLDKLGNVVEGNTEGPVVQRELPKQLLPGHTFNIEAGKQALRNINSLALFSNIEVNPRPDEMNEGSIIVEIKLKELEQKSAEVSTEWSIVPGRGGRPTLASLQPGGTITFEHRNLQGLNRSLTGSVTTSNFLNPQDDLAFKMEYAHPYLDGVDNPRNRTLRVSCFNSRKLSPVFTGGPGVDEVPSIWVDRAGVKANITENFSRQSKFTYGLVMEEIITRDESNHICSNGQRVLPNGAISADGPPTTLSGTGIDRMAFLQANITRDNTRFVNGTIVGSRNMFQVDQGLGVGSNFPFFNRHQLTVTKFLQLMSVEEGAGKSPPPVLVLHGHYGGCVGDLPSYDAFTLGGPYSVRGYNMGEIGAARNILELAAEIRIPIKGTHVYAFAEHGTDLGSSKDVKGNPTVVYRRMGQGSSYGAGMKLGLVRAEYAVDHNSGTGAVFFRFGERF

Binder	stoichiometry N (molecules per Toc159) [1]	stoichiometry N (molecules per Toc159) [2]	stoichiometry N (molecules per Toc159) [3]	binding result (Toc75)
Toc75 (natural protein) DEPKSEDWDSHELPADITVLLGRLSGFKKYKISDILFFDRNKKSKVETQDSFLDMVSLKPGGVYTKAQLQKELESLATCGMFEKVDMEGKTNADGSLGLTISFAESMWERADRFRCINVGLMGQSKPVEMDPDMSEKEKIEFFRRQEREYKRRISSARPCLLPTSVHEEIKDMLAEQGRVSARLLQKIRDRVQSWYHEEGYACAQVVNFGNLNTREVVCEVVEGDITKLSIQYLDKLGNVVEGNTEGPVVQRELPKQLLPGHTFNIEAGKQALRNINSLALFSNIEVNPRPDEMNEGSIIVEIKLKELEQKSAEVSTEWSIVPGRGGRPTLASLQPGGTITFEHRNLQGLNRSLTGSVTTSNFLNPQDDLAFKMEYAHPYLDGVDNPRNRTLRVSCFNSRKLSPVFTGGPGVDEVPSIWVDRAGVKANITENFSRQSKFTYGLVMEEIITRDESNHICSNGQRVLPNGAISADGPPTTLSGTGIDRMAFLQANITRDNTRFVNGTIVGSRNMFQVDQGLGVGSNFPFFNRHQLTVTKFLQLMSVEEGAGKSPPPVLVLHGHYGGCVGDLPSYDAFTLGGPYSVRGYNMGEIGAARNILELAAEIRIPIKGTHVYAFAEHGTDLGSSKDVKGNPTVVYRRMGQGSSYGAGMKLGLVRAEYAVDHNSGTGAVFFRFGERF	4	4 to 5	4	
Toc34 (natural protein, UniProt Q41009 1-310, looked up) MASQQQTVREWSGINTFAPATQTKLLELLGNLKQEDVNSLTILVMGKGGVGKSSTVNSIIGERVVSISPFQSEGPRPVMVSRSRAGFTLNIIDTPGLIEGGYINDMALNIIKSFLLDKTIDVLLYVDRLDAYRVDNLDKLVAKAITDSFGKGIWNKAIVALTHAQFSPPDGLPYDEFFSKRSEALLQVVRSGASLKKDAQASDIPVVLIENSGRCNKNDSDEKVLPNGIAWIPHLVQTITEVALNKSESIFVDKNLIDGPNPNQRGKLWIPLIFALQYLFLAKPIEALIRRDIATETKPAWETRDVGDRK	4 to 5	4 and 6	4 to 6	binds
